Laboratory results as given in US20170107293A1 (BIOINVENT INTERNATIONAL, published 2017).

T1: Soluble hFcγRIIB (R & D Systems) (human, UniProt P31994 46-217)
T1 construct: Bought reagent; also called hFcγRIIB fusion protein
T1 sequence (looked up): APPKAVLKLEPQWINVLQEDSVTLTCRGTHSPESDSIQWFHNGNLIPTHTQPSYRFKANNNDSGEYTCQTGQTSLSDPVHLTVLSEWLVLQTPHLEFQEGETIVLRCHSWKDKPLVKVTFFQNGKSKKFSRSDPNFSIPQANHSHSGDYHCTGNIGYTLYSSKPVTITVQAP

T2: human FcγRIIB on cells (human, UniProt P31994 43-310)
T2 construct: whole, on cells; also called hFcγRIIB; CD32B
T2 sequence (looked up): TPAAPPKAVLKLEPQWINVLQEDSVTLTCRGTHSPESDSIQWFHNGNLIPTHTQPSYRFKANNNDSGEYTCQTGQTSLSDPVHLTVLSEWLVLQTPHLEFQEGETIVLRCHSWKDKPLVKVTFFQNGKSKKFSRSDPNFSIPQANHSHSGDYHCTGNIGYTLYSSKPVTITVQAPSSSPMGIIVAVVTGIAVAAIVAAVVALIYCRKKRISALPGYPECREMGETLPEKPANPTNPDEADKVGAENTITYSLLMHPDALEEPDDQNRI

T3: human FcγRIIA on cells (human, UniProt P12318 34-317)
T3 construct: whole, on cells; also called hFcγRIIA; FcγRIIA^+ve CHO
T3 sequence (looked up): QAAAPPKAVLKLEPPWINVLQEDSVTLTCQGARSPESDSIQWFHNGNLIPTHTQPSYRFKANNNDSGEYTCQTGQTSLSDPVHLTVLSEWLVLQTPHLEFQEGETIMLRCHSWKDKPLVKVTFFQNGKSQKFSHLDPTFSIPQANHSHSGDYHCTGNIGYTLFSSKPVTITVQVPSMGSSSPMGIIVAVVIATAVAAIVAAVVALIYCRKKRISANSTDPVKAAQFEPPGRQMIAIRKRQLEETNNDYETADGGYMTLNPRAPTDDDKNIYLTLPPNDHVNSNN

T4: cynomolgus monkey FcγRIIB (cynomolgus monkey, UniProt A0A140HDP4 43-312)
T4 construct: whole, on cells; also called FcγRIIB in other species
T4 sequence: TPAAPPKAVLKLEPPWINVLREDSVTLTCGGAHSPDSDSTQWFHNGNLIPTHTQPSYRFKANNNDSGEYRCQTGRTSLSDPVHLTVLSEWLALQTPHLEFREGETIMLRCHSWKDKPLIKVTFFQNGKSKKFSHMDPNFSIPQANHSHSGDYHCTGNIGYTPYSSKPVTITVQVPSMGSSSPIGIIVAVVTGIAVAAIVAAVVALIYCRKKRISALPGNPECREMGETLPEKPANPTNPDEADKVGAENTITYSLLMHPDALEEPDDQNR

T5: rat FcγRIIB (rat, UniProt A0A0G2K9R6 42-295)
T5 construct: also called FcγRIIB in other species
T5 sequence: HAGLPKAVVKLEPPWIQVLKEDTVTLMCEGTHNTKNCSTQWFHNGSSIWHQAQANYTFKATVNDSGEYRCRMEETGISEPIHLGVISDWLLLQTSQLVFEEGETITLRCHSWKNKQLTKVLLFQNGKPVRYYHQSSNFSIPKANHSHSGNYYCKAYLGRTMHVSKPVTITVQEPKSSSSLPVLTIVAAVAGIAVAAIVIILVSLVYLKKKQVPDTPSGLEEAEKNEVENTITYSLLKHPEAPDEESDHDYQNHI

T6: mouse FcγRIIB (mouse, UniProt P08101 30-330)
T6 construct: whole, on cells; also called mFcγRII; FcγRIIB in other species
T6 sequence (looked up): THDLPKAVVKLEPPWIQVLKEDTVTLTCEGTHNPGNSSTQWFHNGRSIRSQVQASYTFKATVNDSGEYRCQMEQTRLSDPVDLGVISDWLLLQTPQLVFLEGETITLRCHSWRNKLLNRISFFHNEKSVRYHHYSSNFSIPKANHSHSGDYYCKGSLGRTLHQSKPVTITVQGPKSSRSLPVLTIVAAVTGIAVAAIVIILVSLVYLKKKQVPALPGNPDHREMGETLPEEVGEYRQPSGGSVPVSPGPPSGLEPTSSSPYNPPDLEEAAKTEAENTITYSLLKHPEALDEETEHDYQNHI


Key:
[1] = target: T1, Soluble hFcγRIIB (R & D Systems); test: SPR (Biacore T100), mAb immobilised on CM5, soluble hFcγRIIB injected, 1:1 model; column headed KA (1/MS)
Description: (§1) A BIAcore T100 analyzer (GE Healthcare, UK) was used to determine the binding affinity of the hFcγRIIB mAb, as described elsewhere.²⁵ mAb were immobilized onto a CM5 sensorchip (GE Healthcare, UK), using standard amine coupling according to the manufacturer's instructions. Soluble hFcγRIIB (0.16-100 nM; R & D Systems, UK) was injected for 5 minutes and dissociation monitored for 10 minutes. Background binding to the control flow cell was monitored and subtracted automatically. The KD values were calculated from the 1:1 binding model using the BIAcore T100 Evaluation software.

[2] = target: T1, Soluble hFcγRIIB (R & D Systems); test: SPR (Biacore T100), mAb immobilised on CM5, soluble hFcγRIIB injected, 1:1 model; column headed KD (1/s)
Description: as §1

[3] = target: T2, human FcγRIIB on cells; test: inhibition of binding of IC to hFcγRIIB-transfected cells by the mAb [2/2) bottom]
[4] = target: T2, human FcγRIIB on cells; test: binding to hFcγRIIB-transfected cells, total fluorescence intensity against mAb concentration [2/2) bottom]
[5] = target: T1, Soluble hFcγRIIB (R & D Systems); test: SPR, mAb immobilised, soluble hFcγRIIB injected
Description: as §1

[6] = target: T1, Soluble hFcγRIIB (R & D Systems); test: SPR, mAb immobilised, soluble hFcγRIIB injected; column headed KD (1/s)
Description: as §1

[7] = target: T1, Soluble hFcγRIIB (R & D Systems); test: SPR (Biacore T100), mAb immobilised on CM5, soluble hFcγRIIB injected, 1:1 model
Description: as §1

[8] = target: T1, Soluble hFcγRIIB (R & D Systems); test: SPR, mAb immobilised, soluble hFcγRIIB injected; column headed KA (1/MS)
Description: as §1

[9] = target: T3, human FcγRIIA on cells; test: binding to FcγRIIA-transfected CHO-k1 cells
[10] = target: T1, Soluble hFcγRIIB (R & D Systems); test: SPR, mAb immobilised, soluble hFcγRIIB injected; Table 2 gives the same values for 6G08
Description: as §1

[11] = target: T1, Soluble hFcγRIIB (R & D Systems); test: SPR, mAb immobilised, soluble hFcγRIIB injected; column headed KD (1/s); Table 2 gives the same values for 6G08
Description: as §1

[12] = target: T3, human FcγRIIA on cells; test: not specified (summary in the discussion)
[13] = target: T4, cynomolgus monkey FcγRIIB; test: IHC on frozen tissue sections
[14] = target: T5, rat FcγRIIB; test: IHC on frozen tissue sections
[15] = target: T6, mouse FcγRIIB; test: IHC on frozen tissue sections
[16] = target: T3, human FcγRIIA on cells; test: binding to FcγRIIA-transfected CHO-k1 cells; remark: listed apart in the source

| Binder | kon [1] [M⁻¹ s⁻¹] | koff [2] [s⁻¹] | IC50 (read off the curve) [3] [nM] | EC50 (read off the curve) [4] [nM] | Kd [5] [nM] | koff [6] [s⁻¹] | Kd [7] [nM] | kon [8] [M⁻¹ s⁻¹] | binding result [9] | Kd [10] [nM] | koff [11] [s⁻¹] | binding result [12] | binding result [13] | binding result [14] | binding result [15] | binding result [16] |
| --- | --- | --- | --- | --- | --- | --- | --- | --- | --- | --- | --- | --- | --- | --- | --- | --- |
| 5C04 (antibody, human IgG1, V domains shown, hFcγRIIB mAb, human IgG1 (WT); Only VH/VL tied to the clone; also called Antibody clone: 5C04) VH: EVQLLESGGGLVQPGGSLRLSCAASGFTFSNYGMHWVRQAPGKGLEWVAVISYDGSNKYYADSVKGRFTISRDNSKNTLYLQMNSLRAEDTAVYYCAREWRDAFDIWGQGTLVTVSS VL: QSVLTQPPSASGTPGQRVTISCTGSSSNIGAGYDVHWYQQLPGTAPKLLIYSDNQRPSGVPDRFSGSKSGTSASLAISGLRSEDEADYYCAAWDDSLSGSWVFGGGTKLTVLG | 324000 | 0.0481 | ~0.6 | ~0.4 | 142 | 0.0481 | 142 | 324000 |  |  |  |  |  |  |  |  |
| 5G08 (antibody, human IgG1, V domains shown, hFcγRIIB mAb, human IgG1 (WT); Only VH/VL tied to the clone; also called Antibody clone: 5G08) VH: EVQLLESGGGLVQPGGSLRLSCAASGFTFNNYGMHWVRQAPGKGLEWVAVISYDGSNRYYADSVKGRFTMSRDNSKNTLYLQMNSLRAEDTAVYYCARDRWNGMDVWGQGTLVTVSS VL: not shown |  |  |  |  |  |  |  |  | no binding | 713 | 0.337 |  |  |  |  |  |

Other lines, results leading:

| kon [1] [M⁻¹ s⁻¹] | koff [2] [s⁻¹] | IC50 (read off the curve) [3] [nM] | EC50 (read off the curve) [4] [nM] | Kd [5] [nM] | koff [6] [s⁻¹] | Kd [7] [nM] | kon [8] [M⁻¹ s⁻¹] | binding result [9] | Kd [10] [nM] | koff [11] [s⁻¹] | binding result [12] | binding result [13] | binding result [14] | binding result [15] | binding result [16] | Binder |
| --- | --- | --- | --- | --- | --- | --- | --- | --- | --- | --- | --- | --- | --- | --- | --- | --- |
| 6.9e+06 | 0.182 |  |  | 26.4 | 0.182 | 26.4 | 6.9e+06 |  |  |  | no binding | no binding | no binding | no binding |  | 6G11 (antibody, human IgG1, V domains shown, Lead antagonistic hFcγRIIB mAb, human IgG1 (WT); Only VH/VL tied to the clone; also called Antibody clone: 6G11; WT 6G11) VH: EVQLLESGGGLVQPGGSLRLSCAASGFTFSSYGMHWVRQAPGKGLEWMAVISYDGSNKYYADSVKGRFTISRDNSKNTLYLQMNSLRAEDTAVYYCARELYDAFDIWGQGTLVTVSS VL: QSVLTQPPSASGTPGQRVTISCTGSSSNIGAGYDVHWYQQLPGTAPKLLIYADDHRPSGVPDRFSGSKSGTSASLAISGLRSEDEADYYCASWDDSQRAVIFGGGTKLTVLG |
| 802 | 0.00177 |  |  | 2210 | 0.00177 | 2210 | 802 |  |  |  |  |  |  |  | no binding | 5C05 (antibody, human IgG1, V domains shown, hFcγRIIB mAb, human IgG1 (WT); Only VH/VL tied to the clone; also called Antibody clone: 5C05) VH: EVQLLESGGGLVQPGGSLRLSCAASGFTFSTYGMHWVRQAPGKGLEWVAVISYDGSNKYYADSVKGRFTISRDNSKNTLYLQMNSLRAEDTAVYYCARENFDAFDVWGQGTLVTVSS VL: QSVLTQPPSASGTPGQRVTISCTGSSSNIGAGYDVHWYQQLPGTAPKLLIYSNSQRPSGVPDRFSGSKSGTSASLAISGLRSEDEADYYCAAWDDSLNGQVVFGGGTKLTVLG |
